In article PMC12464775 (2025):
Ends that are not written are not given here. * marks the point of attachment. Biotin = O=C1N[C@H]2[C@H](CS[C@H]2CCCCC(=O)*)N1; azide = [N-]=[N+]=N*

B1: extracellular domain (ECD) of the human RNF43 protein, biotinylated (domain or fragment)
chain: GFGRTGLVLAAAVESERSAEQKAIIRVIPLKMDPTGKLNLTLEGVFAGVAEITPAEGKLMQSHPLYLCNASDDDNLEPGFISIVKLESPRRAPRPCLSLASKARMAGERGASAVLFDITEDRAAAEQLQQPLGLTWPVVLIWGNDAEKLMEFVYKNQKAHVRIELKEPPAWPDY
modifications: biotin (EZ-link-NHS-PEG4-biotin), 1–2 biotin molecules per protein
B2: mouse RNF43 (domain or fragment)
chain: GFGHTGRVLAAAVESERSAEQKAVIRVIPLKMDPTGKLNLTLEGVFAGVAEVTPAEGKLMQSHPLYLCNASDDDNLEPGFISIVKLESPRRAPRPCLSLASKARMAGERGANAVLFDITEDRSAAEQLQQPLGLTKPVVLIWGSDAAKLMEFVYKNRKAYVWIELKEPPAGANY

Tests used:
NAz-GUR-1.6.12.2 = experiment: SPR
GUR-1.6.12.16 = experiment: SPR
GUR-1.6.12.4 = experiment: SPR
GUR-1.6.12.12 = experiment: SPR
GUR-1 = experiment: SPR
[1] = biological target: B1; experiment: SPR
[2] = biological target: B1; experiment: SPR
mouse RNF43 = biological target: B2; experiment: SPR
deglycosylated RNF43 = biological target: T1, deglycosylated RNF43 (human, UniProt Q68DV7 24-197, biotin; deglycosylated with Deglycosylation Mix II (glycosylation sites N62 and N92)); experiment: SPR; deglycosylated RNF43
T1 chain: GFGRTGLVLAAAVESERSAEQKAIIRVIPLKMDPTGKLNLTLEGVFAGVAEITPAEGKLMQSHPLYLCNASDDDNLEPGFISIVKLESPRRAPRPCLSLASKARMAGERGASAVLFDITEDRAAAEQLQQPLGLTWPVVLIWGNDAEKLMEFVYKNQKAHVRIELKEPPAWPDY

[3] = biological target: B1; experiment: SPR; RNF43 immobilized
[4] = biological target: T2, human RNF43 (in solution) (human); experiment: SPR; bio-GUR-1.6.12.2 immobilized
T2 chain: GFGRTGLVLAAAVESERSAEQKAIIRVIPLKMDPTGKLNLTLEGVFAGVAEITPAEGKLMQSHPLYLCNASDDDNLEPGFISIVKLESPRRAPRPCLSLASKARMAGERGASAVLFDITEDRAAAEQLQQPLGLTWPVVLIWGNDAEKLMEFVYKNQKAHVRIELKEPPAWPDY

## B1
NAz-GUR-1.6.12.2
  Kd: 2.9 nM
GUR-1.6.12.16
  Kd: 4 nM
GUR-1.6.12.4
  Kd: 3.9 nM
GUR-1.6.12.12
  Kd: 7.9 nM
GUR-1
  Kd: 1220 nM

## azide-EQCTSTQDLCHDYSHVCCWPLDCRWAVKYQWFWDCIG (designed binder, also: dimer via bivalent PEG5 linker (azide–alkyne cycloaddition)) [di-GUR-1.6.12.2]
[1]
  Kd: 0.06 nM

## EQCTSTQDLCHDYSHVCCWPLDCRWAVKYQWFWDCIG (designed binder) [GUR-1.6.12.2]
[2]
  Kd: 1.1 nM
Mouse RNF43
  Kd: 2.1 nM
Deglycosylated RNF43
  Kd: 2.8 nM

## B2
GUR-1.6.12.16
  Kd: 1.6 nM
GUR-1.6.12.4
  Kd: 4.5 nM
GUR-1.6.12.12
  Kd: 5.1 nM

## QCVKKDELCIPYYLDCCWPLDCRWAVKYQWFWDCIG (designed binder) [GUR-1.6.12]
[2]
  Kd: 56 nM

## QCVKKDELCIPYYLDCCEPLECRWAVKYQWFWDCIG (designed binder) [GUR-1.6]
[2]
  Kd: 92 nM

## Biotin-EQCTSTQDLCHDYSHVCCWPLDCRWAVKYQWFWDCIG (designed binder, cysteine pairing not given here) [N-terminal biotinylated GUR-1.6.12.2]
[3]
  Kd: 0.5 nM
[4]
  Kd: 46.9 nM

## HDYSHVCCWPLDCRWAVKYQWFWDCIG [truncated peptide GUR-1.6.12.2 H11-G37]
[1]
  Kd: 4.6 nM

## azide-EQCTSTQDLCHDYSHVCCWPLDCRWAVKYQWFWDCIG (designed binder, also: hexamer via six-armed PEG linker (azide–alkyne cycloaddition)) [hex-GUR-1.6.12.2]
[1]
  Kd: 0.0002 nM
